# Data published in the nanobody polyreactivity screen of Harvey et al. (2022).
# Test: yeast display, Sf9 membrane polyspecificity reagent, FACS + sequencing; frameworks hold sequencing errors
# How it was run: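 A nanobody's polyreactivity label depends on the gate it was sorted from. Yeast display cells were stained with 10% biotinylated, detergent-solubilized Sf9 membrane reagent for 1 hour at 4 °C, enriched on streptavidin microbeads and sorted by FACS. The low and high (top ~1%) gates were set on anti-HA fluorescence for expression and streptavidin fluorescence for reagent binding.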
row,Sequence,polyreactivity (PSR sort gate)
1,QVQLVESGGGLVQAGGSLRLSCAASGLIFRGYAMGWYRQAPGKERELVAAISRSGGRTYYADSVKGRYTISRDNAKNTVYLQMNSLKPVDTAVYYCAAQWLYLEYDYWGQGTQVTVSS,high polyreactivity
2,QVQLGESGGGLVQAGGSLRLSCAASGRIFRVNTMGWYRQAPGKERELVAAIRSSGTRTYYAVSVKGRFTISRDNAKNTVYLQMNSLKPEDTAVYYCAATGRRGSGYYYWGQGTQVTVSS,high polyreactivity
3,QVQLVESGGGLVQAGGSLRLSCAASGFTFWRYGMGWYRQAPGKERELVASITSGGGTNYADSVKGRFTISRDNAKNTVYFQMNSLKPEDTAVYYCAATYPYSWVYSGYYYWGQGTQVTVSS,low polyreactivity
4,QVQLVESGGGLVQAGGSLRLSCAASGSTFRVYAMGWYRQAPGKERELVAAISGSGGSTYYADSVKGRFTISRDNAKNTVYLQMNSLKPEDTAVYYCAGRSWYTEYYWGQGTQVTVSS,high polyreactivity
5,QVQLVESGGGLVQAGGSLRLSCAASGRTFFHYAMGWYRQAPGKERELVAAISYRGTSTYYADSVKGRFTISRDNAKNTVYLQMISLKPEDTAVYYCNAYSTRCGWSYRGDSWGQGTQVTVSS,high polyreactivity
6,QVQLVESGGGLVQAGGSLRLSCAASGFTFGWYAMGWDIQAPGKERELLATISWSGSSTYYADSVKGLFTISRDNAKNTVYLQMNSLKPEDTAVYYCNAVYGGFVVLRYDYWGQGTQVTVSS,high polyreactivity
7,QVQLGESGGGLVQAGGSLRLSCAASGRIFISKTMGWSRQAPGKERELVAAITSSGRTYYADSVKGRFTISRDNAMNTVFFQMNSGKPEDTADYYCAADSYSGNDRRRGFDYWGQGTQVTVSS,low polyreactivity
8,QVQLVESGGGLVQAGGSLRLSCAASGRIFYGYAMGWYRQAPGKERELVAAISSGGITYYADSVKGRFTISRDNAKNTVYLQMNSLKPEDTAVYYCAAEPWYKFDYDYWGQGTQVTVSS,low polyreactivity
9,QVQLVESGGGLVQAGGSLRLSCAASGRIFYGNAMGWYRQAPGKERELVAVITSSGGSTYYADSVKGRFTISRDNAKNTVYLQMNSLKPEDTAVYYCAKYYRHWYTHLGYDYWGQGTQVTVSS,high polyreactivity
10,QVQLVESGGGLVQAGGSLRLSCAASGFIFYRYAIGWYIQAPGKEREFVASISGSGGRTYYADSVKGRFTISRDNAKNTVYLQMNTLKPEDTAGYYCAADRYSAYLYWDEYWGQGTQVTVSS,high polyreactivity
11,QVQLVESGGGLVQAGGSLRLSCAASGSTFPYNAKGWYRQAPGKERELVAAITTRGSTYYADSVKGRFTISRDNAKNTVYLQMNSLNPEESAVYYCANGPSLWYRSSFRGEGDYWGQGTQVTVSS,low polyreactivity
12,QVQLVESGGGLVQAGGSLRLSCAASGRIFGLYALGWYRPAPGKEREFVAAIRWIGGGTYYADSVKGRFTISRDHAKNTVYLQINSLKPEDTAVDSCNVVTWYYVFRPWEYDYWGQGTQVTVSS,low polyreactivity
13,QVQLVESGGGLVQAGGSLRLSCADSGSIFFFYAMGWYRQAPGKERELVAAISKSPSSTYYADSVKGRFTISRDNAKNTVYLQMNSLKPEDTAVYYCNTGYSGIQYYYWGQGAQVTVSS,low polyreactivity
14,QVQLVESGGGLVQAGGSLRISCAASVSIFPGYAMGWSRQAPGKERELVATITWSGGSTYYADSVKGRFTISRDNAKNTVYLQMNSLKPEDTAVYYCNADSNWYYQWNYYCLYDYWGQGTQVTVSS,low polyreactivity
15,QVQLVESGVGLVQAGGSLRLSCAASGSNSGLYAMGWYRQAPGKERELVAAIRWSGGSTRYADSVKGRFTISRDNAKNTVYLLMNSLKPEDTAVYYCAADFYSKFVRFGYWGQGTQVTVSS,high polyreactivity
16,QVQLVESGVGLLQEGGSLSLSCAASGRTFRWYGMGWYSQAPGKEREFVAAISFRGGTTYYADSVKGRFTISRDNAKNTVYLQMNSLKPEDTAVYYCAARSGYYTSDYKYYYWGQGTQVTVSS,high polyreactivity
17,QVQLVESGGGVVQAGGSLRVSCAATGSIYYRSAMGWYRQAPGKERELVAAISVSGGSTYYADSVKGRFTISRDNAKITDYLQMNSLKPEDTAVYYCAAVVRYGYEYWGQGTQVTVSS,high polyreactivity
18,QVQLQESGGGLVQAGGGLRLSCAASGTISGPHVMGWYRQAPGKEREFVAAINVGANTYYADNVKGRFTISRDNAKNTVYLQMNSLKPEDTAVYYRAAVYYGDIGHEYWGQGTQVTVSC,low polyreactivity
19,QVQLVESGGGLVQAGGSLRLSCAASGRIFSVYAMGWYRQAPGKEREFVASISWRGGRTYYADSVKGRFTISRDNAKNTVYLQMNSLKPEDTAVYYCAAVSYPAVYGFDYWGQGTQVTVSS,high polyreactivity
20,QVQLVESGGGLVQAGGSLRLSCAASGRMFRWYAMGWYRPAPGKERELVAAITSGGSTNYADSVKGRFTISRDNAKNTVYLKMNSLKPEDTAVYYCAARWKFPSSFYYWGQGTQVTVSS,high polyreactivity
21,QVQLVESGGGLVQAGGSLRLSCAASGFTFDKNVMGWYRQAPGKERELVAAISVRGGTTYYADSVKGRFTISRDNAKNTVYLQMNSLKPEDTAVYYCAARAYGPPARYDSWGQGTQVTVSS,low polyreactivity
22,QVQLVESGGGLVQAGGSLRLSCAASGRTFGKNAMGWYRQAPGKERELVAAISTSGGRTYYADSVMGRFTISRDNAKNTVYLQMNSLIPEDPAVYYCAAVLYDTRPVYGCESWGQGTQVTVSS,high polyreactivity

row,Sequence,polyreactivity (PSR sort gate)
1,QVQLVESGGGLVQAGGSLRLICAASGRTFGTNTMGWYRQAPGKERELVATISSSSGSTYYADSVKGRFTISRDNAKNTVYLQMNSLKPEDSAVYYWAALYRWGYKRYDYWGQGTQVTVSS,high polyreactivity
2,QVQLVESGGGLVQAGGSLRLSCAASGRIFVINDMGWYRKATGKERELVAAITWGSSTYADSVKGRFTISRDNAKNTVYLQMNSLKPEDTAVYYCARDVYPSTWEYDYWGQGTQVTVSS,low polyreactivity
3,QVQLVESGGGLVQAGGSLRLSCAASGRTFSGNARGWYRQAPGKERELVATITRRGGSTYYADSVKGRFTISRDNAKNTVYLQMNSLKPEDTAVYYCAARRVVNGGQGYESWGQGTQVTVSS,high polyreactivity
4,QVQLVESGGGLVQAGGSLRLSCAASGSIFPFNAMGWYRQAPGKERELVAAISVNGGTTYYADSVKGRFTISRDNAKNTVYLQMNSLKPEDTAVYYCNARRAYLYYVSYRYGYWGQGTQVTVSS,low polyreactivity
5,QVQLVESGGGLVQAGGSLRLSCAASGFTFWRYAMGWYRQAPGKERELVAAISYSGGSTYYADSVKGRFTISRDYAKNTVYLQMNSLKPEDTAVYYCNAETGYGVYRTKYGYWGQGTQVTVSS,high polyreactivity
6,QVQLVESGGGLVQAGGSLRLSCAASGSTFKRYAMGWYRQAPGKERELVASISSGGSTNYVDSVKGRFTISRDNAKNTVYLQMNSLKPEDTAVYYCAVSYRSFRYYWERYYSWGQGTQVTVSS,high polyreactivity
7,QVQLVESAGGLVQAGGSLRLSCAASGLTFPPNAMGWYRHAPGKERELVADSGGSTNYADSVKGRFTISRDNAKNTVYLQMNSLKPEDTAVYYCAAPPYSDGQWDDYWGQGSQVTVSS,low polyreactivity
8,QVQLVESGGGLVKAGGSLRLSCAASGNIFYINTMGWYRQAPGKERELVAAIDASYGSTYYADSVKGRFTISRDNAKNTVYLQMNSLKPEDTAVYYCATSRGYDSVYYFYTLWYYYWVQGTQVTVSS,low polyreactivity
9,QVQLVESGGGLDQAGGRLPLTCAASGLIFYDNMGWYRHAPGKERELVAAISSSGGSTSYADSVKGRFTISRDNAKNTVFLQMICLKPEDTAVYYCAADSYPAYLGFVGFDYWGQGTIVTVSS,low polyreactivity
10,QVQLQESGDGLVQAVGSLRLSCAASGYISGYYYMGWYRQAPGKERELVAGIDAFGSSTNYADCVKGRLTISRDNAKNTVYLQMNSPKPEDTAVYYCAAEYDDWDYHWYWGQGTQVTVSS,low polyreactivity
11,QVQLVDSGGGLDQAGGSLRLSCAASGYTFWLYAMGWYRQAPGKERELVAAISRGGITNYADSVKGRFTISRDNAKNTVYLQMNSLKPEDTAVYYCAAEYRGRGWRYGYDDWGQGTQVTVSS,high polyreactivity
12,QVQLVESGGGLVQAGGSLRLSCAASGFTIRSYVMGWYRQAPGKEREFVAAISYRGGGTNYADSVKGRFTISRDNAKNTVYLQMNSLKPEDTAVYYCNALVYDQYGYYHYYLRNGGYYWGQGTQVTVSS,high polyreactivity
13,LEQLVESGGGLVHAGGSLRLSCAASRSNFPQYTLGWNRQAPVKERELVAAISNYGSSTYYADSEKGRFTISRDYAKNSVSLQMNSLKPEDTAVYECNADDYGYYPGVNYWGQGTQVTVSS,low polyreactivity
14,QVQLVESGGGLVQAGGSLRLSCAASGSTFNQNAMGWYRQAPGKERELVARITSGGSTYYADSVKGRFTISRDNAKNTVYLQMNSLKPEDTAVYYCAARANPYVLKYYYWGQGTQVTVSS,high polyreactivity
15,QVQLVESGGGLVQAGGSLRLSCAASGFTFSHNPMGWYRQAPGKERELVATITRGGGNTYYADSVKGRCTISRDNAKNTVYLQMNSLKPEDTAVYYCSAERYKRMDYWGQGTQVTVSS,low polyreactivity
16,QVQLVESGGGLVQAGGSLRLSCAASGRTFRWNAMVWYRQEPGKERELVARITSGGRTSYADSVKGRFTISRDNAKNTVYLQMNSLKPEDTAVYYCAARSIGYHWGYDYWGQGTQVTVSS,high polyreactivity
17,QVQLVESGGGLVQAGGSLRLSCAASGRNFVRYTMGWYRQAPGKERELVAAISGSGSSTFYADSVKGRFTISRDNAKNTVYLQMNSLKPEDTAVYYCAARVRRVARDPYDYWGQGTQVTVSS,high polyreactivity
18,QVQLVESGGGLVEAGGSLRLSCAASGSIFDDYAMGWYRQAPGEERELVAAITWNGGSTYADSVKGRFTISRDNAKNTVYFQMNSLKPEDTAVYYSAADYFVYWYYGYGYWGQGTQVTVSS,low polyreactivity
19,QVQLVESGGGLVQAGGSLRLSCAASGSIFSRYAMGWYRQAPAKERELVAASSSRGGSTYYADSVKGRFTISRDNAKNTVYLQMNSLKTEDTAVYYCAAQAPDTPSLDEGDFWGQGTQVTVSS,high polyreactivity
20,QVQLVESGGGLVQAGGSLRLSCAASGGIFGLYTMGWYRQAPGKERELVAAISKTGGSTYYADSVKGRFTISRDNAKHTVYLQMNSLKPEDTAVYYCAADGPYDDYEYWGQGTQVTVSS,high polyreactivity
21,QVQLVESGGGLFQAGGSLRLSCDASGRNFSGNAMGMYRQAPGKERELVAAITWSGSSTFYADSVKGLFTISRDYAKNTVYFQMNSLKPEDTAVYYCAVDSSSPVRPHSDEDYWGQGTQVTVSS,low polyreactivity
